Positions count from the first letter of the chain named. Names may count otherwise. Read-outs that look alike come from different tables or passages of the source. Bridges are numbered along the chain shown (N, C = ends). Where no end group is shown, it is not given here.
Columns and labels:
[1] = Plasma pharmacokinetics in monkeys (toxicology studies); conditions: cynomolgus monkey, in vivo, sc
Description: (§1) Example 11 is administered in a single 3 mg/kg dose to male and female monkeys by SC bolus injection.

[2] = in vivo; conditions: rat, plasma, sc
Description: (§2) On Day 4, blood samples are collected to determine plasma concentration and the infusion pump is removed.

[3] = in vivo; conditions: rat, plasma, sc, 2.18 mg/kg/day
Description: At the end of designated infusion phase, blood samples are collected to determine plasma concentration and the infusion pump is removed.

[4] = Day 4 (96 hours), steady state
Description: as §2

[5] = Plasma pharmacokinetics in rats (toxicology studies); conditions: rats
Description: as §1

[6] = molecular target: T1, human HER2 and HER4 (Homo sapiens, UniProt Q15303); experiment: Screening by human HER2-HER4 mediated ERK 1/2 phosphorylation in CHO-hHER2-hHER4 (clone 1H6) cells; format: cell-based; conditions: Table 5; Fc variants as 293F supernatants; Examples average of two replicates ± standard deviation
T1 construct: expressed in transfected cells
Description: A cell based assay utilizing CHO-K1 cells overexpressing human or rat HER receptors is used to determine activity of NRG4 compounds. CHO-K1 cells (ATCC) are grown in DMEM-F12 3:1 with 5% FBS with 20 mM HEPES, 40 μg/mL L-Proline, lx antibiotics and were split 1:5 every 2-3 days with TripLE Express (Gibco). Cells are transfected with plasmid DNA encoding HER receptors in pairs (hHER2-3, hHER2-4, rHER2-3 and rHER2-4) with Fugene 6 (Promega) according to the manufacturer's instructions. […] Transfected cells are selected with Puromycin (12 ug/ml) and Hygromycin (1 mg/ml) for 3-4 weeks and clonal lines are obtained by limited dilution cloning into 96 well plates. Clonal lines are selected by appropriate gene expression of HER2, HER3 or HER4 by Taqman method. Lines with appropriate receptor expression are confirmed by NRG1 induced phospho-ERK 1/2 responses. Clones are grown up, harvested, aliquoted into cryovials and then frozen under liquid nitrogen for long-term storage.
A phospho-ERK1/2 activity assay is used to determine potencies of NRG4 compounds. The potency of Examples 1-8 and 10 as compared to WT human NRG1 and/or human NRG4 are analyzed in studies measuring stimulation of human HER2-HER4 mediated ERK 1/2 phosphorylation. This assay comprises a CHO-K1 stable line expressing human HER2 and HER4. CHO-hHER2-hHER4 (clone 1H6) cells are routinely cultured in DMEM: F12(3:1), 5% FBS, 40 μg/mL L-Proline, 10 μg/mL puromycin and 1 mg/mL hygromycin at 37° C., 5% CO2. Cells are washed twice with 1×PBS, dissociated with 0.05% trypsin/[…] EDTA and collected by centrifugation at 300×g for 10 m. Cells are re-suspended in maintenance media. 20,000 cells/well, in 30 μL, are seeded into 384 well Poly-D-Lysine cell culture plates (Greiner, Cat No. 781946). Plates are covered with a manufacturer's lid and moved to a 37° C. tissue culture incubator at 5% CO^2, 80%+ humidity and allowed to adhere. After 24 h, media are removed from the plates and replaced with 30 μL serum-free starvation media (Low glucose DMEM with 0.1% BSA) using a Biomek FX liquid handler. Plates are returned to the incubator for 24 h.
hFcNRG4 variants, transiently expressed as 293F supernatants, are prepared in starvation media in a clear 384W plate (Greiner, cat no. 781185) as a 4pt 1:8 serial dilution (dose range averaged between 250 pM to 140000 pM). Media are removed from the cell culture plates and the 30 uL/well prepared variants are stamped into the plates using a Biomek FX liquid handler. Plates are sealed with a foil seal and stimulated for 15 minutes at room temperature on an orbital shaker. Cells are then washed once with 50 uL cold PBS. 30 uL lysis buffer is added to the cells and oscillated for 10 m at RT on an orbital shaker.
Detection of phosphorylation of ERR 1/2 is performed with either an AlphaScreen SureFire phospho-ERK1/2 kit (T202/Y204) (Perkin Elmer, catalog no. TGRES) or an AlphaLISA® SureFire® Ultra™ p ERK1/2 assay kit together with the AlphaScreen Protein. A IgG Detection Kit (Protein-A) (PerkinElmer, catalogue no. 6760617). After lysis of the CHO-K1 cells. 4 μL lysate is transferred to a 384W Alpha Proxiplate (Perkin Elmer, cat no, 6008280) with a 384W Biomek FX. 4 uL positive and negative lysates (Perkin Elmer, TGRES-L) are added to available wells as controls. 5 uL/well acceptor mix (containing anti-phoso-Thr202/Tyr204 antibodies and Protein A conjugated acceptor beads) is added to the plate with a Forumlatrix Mantis. The plate is sealed, spun down for 1 min at 300×g and incubated for 2 hr at room temperature on an orbital shaker. 2 μL/well donor mix (containing strepavidin coated donor beads and biotinylated antibodies to a distal ERK1/2 epitope) is dispensed by Mantis. The plate is sealed, spun down for 1 min at 300×g and incubated for 2 hr at room temperature on an orbital shaker before reading on the Perkin Elmer Envision 2103 Multilabel Reader (HIS Alpha mode, excitation time: 40 ms, total measurement time: 130 ms). […]

[7] = molecular target: T2, HER4 receptor extracellular domain (ECD) (Homo sapiens, UniProt Q15303); experiment: HER4/NRG-Fc binding assay (ELISA) for screening NRG4 variants
T2 construct: C-terminal His-tagged HER4 receptor extracellular domain (ECD) construct
T2 sequence (Q15303 26-651 limits assumed): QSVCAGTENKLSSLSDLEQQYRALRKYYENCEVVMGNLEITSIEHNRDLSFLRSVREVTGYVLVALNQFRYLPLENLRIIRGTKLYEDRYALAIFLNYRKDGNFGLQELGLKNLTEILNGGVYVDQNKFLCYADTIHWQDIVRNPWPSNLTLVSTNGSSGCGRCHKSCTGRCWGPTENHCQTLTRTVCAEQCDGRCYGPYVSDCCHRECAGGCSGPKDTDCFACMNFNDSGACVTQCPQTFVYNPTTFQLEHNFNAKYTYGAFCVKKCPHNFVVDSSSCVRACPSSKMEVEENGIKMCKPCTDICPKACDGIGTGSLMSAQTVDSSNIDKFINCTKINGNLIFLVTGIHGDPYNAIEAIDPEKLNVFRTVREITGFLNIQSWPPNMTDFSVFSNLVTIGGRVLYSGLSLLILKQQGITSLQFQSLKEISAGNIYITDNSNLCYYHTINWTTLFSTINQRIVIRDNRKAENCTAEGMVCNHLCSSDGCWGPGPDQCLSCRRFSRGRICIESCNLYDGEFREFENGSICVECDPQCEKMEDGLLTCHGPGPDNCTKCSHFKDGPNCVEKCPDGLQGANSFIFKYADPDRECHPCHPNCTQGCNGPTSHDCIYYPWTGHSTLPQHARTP
Description: A binding assay is utilized to perform high-throughput screening of NRG4 variant Fc fusion proteins to HER4 receptor, to identify affinity-driven variants with the potential to increase receptor activation and signaling. ELISA plates are coated with an anti-His tag antibody at 2 μg/ml in PBS to facilitate the standardized capture of a C-terminal His-tagged HER4 receptor extracellular domain (ECD) construct after blocking the plate with 1% BSA/PBS/0.1% Tween 20 (HER4 ECD at 5 μg/ml). Saturating amounts of unpurified NRG4-Fc variants in expression media (Starting at 10 μg/ml with serial dilutions in 1% BSA/PBS/0.1% Tween 20) are incubated with the captured receptor for 1 hour. After washing, bound variant NRG4-Fc is detected colorimetrically with an anti-human Fc-specific alkaline phosphatase secondary detection reagent to quantitate binding. Incubation times of variant binding to receptor or durations of the subsequent wash steps are varied to further identify binding variants driven by affinity on-rate and off-rate, respectively.

Molecule: H-GGGGSGHEEPCGPSHKSFCLNGGLCYQIPTIPSPFCRCVENYTGARCEKVFL (disulfide 11-25, 19-36, 38-47 (inferred)) [Example 9]
- half-life [1]: < 5 h
- level at time molar at 96 h ([2]; 0.22 mg/kg/day): 2.59 nM
- level at time molar at 96 h ([2]; 0.73 mg/kg/day): 9.94 nM
- level at time molar at 48 h [3]: 40.1 nM
- level at time molar at 72 h [3]: 47.3 nM
- level at time molar at 96 h [3]: 31.4 nM
- Exposure in rat plasma, Mean ([4]; 2.18 mg/kg/day SC infusion): 29.62 nM
- Exposure in rat plasma, Mean ([4]; 7.28 mg/kg/day SC infusion): 72.24 nM
- half-life after SC administration [5]: less than an hour

B1: Example 1: NRG4 D1G, (GGGGS)3 linker, SEQ ID NO: 10, fused to IgG Fc dimer SEQ ID NO: 6 and 7 (protein)
chain 1: GGGGSGGGGSGGGGSGHEEPCGPSHKSFCLNGGLCYVIPTIPSPFCRCVENYTGARCEEVFL
chain 2: ECPPCPAPPVAGPSVFLFPPKPKDTLMISRTPEVTCVVVDVSHEDPEVQFNWYVDGVEVHNAKTKPREEQFNSTFRVVSVLTVVHQDWLNGKEYKCKVSNKGLPAPIEKTISKTKGQPREPQVYTLPPSREEMTKNQVSLWCLVKGFYPSDIAVEWESNGQPENNYKTTPPVLDSDGSFFLYSKLTVDKSRWQQGNVFSCSVMHEALHNHYTQKSLSLSPG
chain 3: B1 chain 2 with W141S, L143A, Y182V
- EC50 [6]: 0.77 ± 0.16 nM
- O.D. 405, binding to HER4 extracellular domain ([7]; Dose # 1: Example 1 10.65, WT NRG1 10, WT NRG4 17 μg/mL): 1.485
- O.D. 405, binding to HER4 extracellular domain ([7]; Dose # 2: Example 1 5.325, WT NRG1 5, WT NRG4 8.5 μg/mL): 1.438
- O.D. 405, binding to HER4 extracellular domain ([7]; Dose # 3: Example 1 2.6625, WT NRG1 2.5, WT NRG4 4.25 μg/mL): 1.4
- O.D. 405, binding to HER4 extracellular domain ([7]; Dose # 4: Example 1 1.33125, WT NRG1 1.25, WT NRG4 2.125 μg/mL): 1.332
- O.D. 405, binding to HER4 extracellular domain ([7]; Dose # 5: Example 1 0.665625, WT NRG1 0.625, WT NRG4 1.0625 μg/mL): 1.217
- O.D. 405, binding to HER4 extracellular domain ([7]; Dose # 6: Example 1 0.332813, WT NRG1 0.3125, WT NRG4 0.53125 μg/mL): 1.081
- O.D. 405, binding to HER4 extracellular domain ([7]; Dose # 7: Example 1 0.166406, WT NRG1 0.15625, WT NRG4 0.265625 μg/mL): 0.865
- O.D. 405, binding to HER4 extracellular domain ([7]; Dose # 8: Example 1 0.083203, WT NRG1 0.078125, WT NRG4 0.132813 μg/mL): 0.607
- O.D. 405, binding to HER4 extracellular domain ([7]; Dose # 9: Example 1 0.041602, WT NRG1 0.039063, WT NRG4 0.066406 μg/mL): 0.404
- O.D. 405, binding to HER4 extracellular domain ([7]; Dose # 10: Example 1 0.020801, WT NRG1 0.019531, WT NRG4 0.033203 μg/mL): 0.235
- O.D. 405, binding to HER4 extracellular domain ([7]; Dose # 11: Example 1 0.0104, WT NRG1 0.009766, WT NRG4 0.016602 μg/mL): 0.136
- O.D. 405, binding to HER4 extracellular domain ([7]; Dose # 12: Example 1 0.0052, WT NRG1 0.004883, WT NRG4 0.008301 μg/mL): 0.096

Source: patent US11242370B2, “Neuregulin-4 compounds and methods of use” (Eli Lilly and Company, priority 2019, dated 2022)
